The values that follow come from FireProtDB (doi:10.1021/bi027116n).

The conditions of this data set: Spinacia oleracea, reversible: no; for denaturant midpoint (higher = more stable): 20 °C, GdnHCl; for Tm: Thermal.

The Tm is the temperature at which the thermal transition is half complete.

Values joined by “and” are separate entries in the source; they are usually repeats but may differ in a detail not shown here. Identical values can stand only once.

Ferredoxin-1, chloroplastic wild type, P00221, sequence (P00221 whole entry): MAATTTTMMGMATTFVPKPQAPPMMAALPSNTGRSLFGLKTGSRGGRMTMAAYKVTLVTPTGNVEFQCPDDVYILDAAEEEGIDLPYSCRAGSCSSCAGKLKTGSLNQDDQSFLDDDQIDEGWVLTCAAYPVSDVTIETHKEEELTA

With “Ferredoxin-1, chloroplastic wild type, P00221”, the “denaturant midpoint (higher = more stable)” value was 2.1 M and 1.7 M and 1.5 M (pH 7, Absorbance, phosphate); 2.1 M and 1.6 M (pH 7, CD, phosphate); 1.6 M (pH 7, Emission, phosphate); 3 M and 1.5 M (pH 10, Absorbance, Glycine-OH); 1.6 M (pH 10, CD, Glycine-OH); 1.6 M (pH 10, Emission, Glycine-OH). The Tm (pH 7, Absorbance, Phosphate) was 70 °C and the Tm (pH 10, Absorbance, Glycine-OH) came out at 53 °C.
